Source: patent US7393946, “Method of modulating metabolite biosynthesis in recombinant cells” (Rijksuniversiteit Leiden)

Key:
ORCA-1 = ORCA-1 (Catharanthus roseus); assay: cell_activity; within Str1 BH promoter, GUS/CAT, C. roseus cells
ORCA-2 = ORCA-2 (Catharanthus roseus); assay: as above
ORCA-2 (Catharanthus roseus), sequence (chain, as listed by the source): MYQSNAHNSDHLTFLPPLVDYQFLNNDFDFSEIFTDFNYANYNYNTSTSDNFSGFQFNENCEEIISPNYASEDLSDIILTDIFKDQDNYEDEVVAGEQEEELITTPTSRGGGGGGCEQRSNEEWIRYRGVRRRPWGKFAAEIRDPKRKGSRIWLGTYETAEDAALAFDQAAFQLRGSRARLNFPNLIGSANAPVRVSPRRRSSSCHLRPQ

ORCA-1 (Catharanthus roseus), sequence (chain, as listed by the source): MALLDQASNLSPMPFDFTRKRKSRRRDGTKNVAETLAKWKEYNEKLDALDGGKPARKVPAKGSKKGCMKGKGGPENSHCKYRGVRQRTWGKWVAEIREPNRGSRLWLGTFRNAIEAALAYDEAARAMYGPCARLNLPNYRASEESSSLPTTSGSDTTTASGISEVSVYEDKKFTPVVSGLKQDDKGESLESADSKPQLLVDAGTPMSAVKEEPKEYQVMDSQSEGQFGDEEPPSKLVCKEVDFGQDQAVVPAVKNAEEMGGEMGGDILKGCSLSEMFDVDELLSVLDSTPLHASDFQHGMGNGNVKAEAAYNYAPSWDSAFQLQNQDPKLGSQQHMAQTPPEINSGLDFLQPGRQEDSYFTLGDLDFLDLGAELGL

B1: RV region of Str1 promoter (dsDNA)
DNA 1: GTACATCACTCTTAGACCGCCTTCTTTGAAAGTGATTTCCCTTGGACC
DNA 2: GGTCCAAGGGAAATCACTTTCAAAGAAGGCGGTCTAAGAGTGATGTAC
- activity (ORCA-1): 1.6 fold induction
- activity (ORCA-2): 3.3 fold induction
